Data on one sequence can be found in PMC11065875.

A value given as a limit tells only on which side of the number the result lay.

The series deals with H-24 (His-ELP) (synthetic; E. coli BL21 expressed). As to the kind of experiment: coacervate partitioning, fluorimetry. Particulars: EMSA in 2.5% agarose, 30 min incubation, 0.5 uM ssDNA1, fusions in 1x PBS (or 50% artificial fluids) at RT, His-ELPs at RT in 37 mM citric acid/126 mM Na2HPO4 …; for binding signal (% in coacervate): 60 C (LLPS 1). In general terms: In EMSA bound probe runs differently from free probe, usually more slowly.

On to “GGGTTCCTTGCTAGCCAGAGAGCTCCCGGGCTCGACCTGGTCTAACAAGAGAGACC [ATTO488-ssDNA1]”, for which the binding signal (% in coacervate) reads like this: (pH 6.5, artificial nasal swab fluid) 80; (pH 6.5, artificial saliva) 70; (pH 6.5, buffer) 60. This sequence returned a binding signal (% in protein-poor supernatant) (pH 8, 300 mM NaCl, 30 C (LLPS 2)) greater than 90.
